The source of these data is the supplement of paper PMC9112550, “Optimization of the antimicrobial peptide Bac7 by deep mutational scanning” (BMC Biology, 2022).

The series relates to Escherichia coli TOP10. Briefly: shrunken log2 fold change of peptide-encoding DNA abundance (4.5 h post-induction vs induction); higher = less antimicrobial activity (less host growth inhibition). The conditions noted are these: time post-induction: 4.5 h; library: site-saturation at positions 5, 18, 19, 20.
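Also: peptides expressed intracellularly from a pBAD plasmid library in pooled LB shake-flask culture, induced with 0.3% L-arabinose, DNA abundance read by NGS, three biological replicates, DESeq2 with apeglm shrinkage.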

Regarding RRIRVRPPRLPRPRPRPMSDPRP, the “shrunken log2 fold change” value stood at 0.032.

RRIRERPPRLPRPRPRPPLPPRP: the “shrunken log2 fold change” value worked out at 0.151.

As for RRIRNRPPRLPRPRPRPHCTPRP, the “shrunken log2 fold change” value was -0.0475.

As for RRIRARPPRLPRPRPRPTVQPRP, the “shrunken log2 fold change” value worked out at 0.549.

Regarding RRIRDRPPRLPRPRPRPIAAPRP, the “shrunken log2 fold change” value was 0.476.

For RRIRFRPPRLPRPRPRPARAPRP, the “shrunken log2 fold change” value amounted to 1.31.

For the sequence RRIRHRPPRLPRPRPRPAAKPRP, the “shrunken log2 fold change” value was found to be 0.218.

Consider RRIRGRPPRLPRPRPRPQHAPRP, for which the “shrunken log2 fold change” value is 0.797.

On to RRIRPRPPRLPRPRPRPIKQPRP, for which the “shrunken log2 fold change” value came out at 0.109.

For the sequence RRIRDRPPRLPRPRPRPNSTPRP, the “shrunken log2 fold change” value is -0.295.

For the sequence RRIRMRPPRLPRPRPRPNAKPRP, the “shrunken log2 fold change” value was determined as 0.225.

For RRIRGRPPRLPRPRPRPYEGPRP, the “shrunken log2 fold change” value was -0.199.

As to RRIRDRPPRLPRPRPRPHVNPRP, the “shrunken log2 fold change” value stood at 0.000411.

As for RRIRHRPPRLPRPRPRPCSGPRP, the “shrunken log2 fold change” value is -0.0968.

RRIRIRPPRLPRPRPRPFISPRP: the “shrunken log2 fold change” value was -1.43.

On to RRIRVRPPRLPRPRPRPAIHPRP, for which the “shrunken log2 fold change” value was -0.23.

RRIRVRPPRLPRPRPRPAERPRP: the “shrunken log2 fold change” value was -0.0583.

On to RRIRNRPPRLPRPRPRPYTQPRP, for which the “shrunken log2 fold change” value was -0.798.

With RRIRFRPPRLPRPRPRPWINPRP, the “shrunken log2 fold change” value was -0.0461.

Take RRIRQRPPRLPRPRPRPCMVPRP: the “shrunken log2 fold change” value is -0.0725.

As for RRIRDRPPRLPRPRPRPSRDPRP, the “shrunken log2 fold change” value came to 0.00173.

For the sequence RRIRGRPPRLPRPRPRPSTFPRP, the “shrunken log2 fold change” value is 0.112.

For the sequence RRIRMRPPRLPRPRPRPPIIPRP, the “shrunken log2 fold change” value is -0.306.

For RRIRCRPPRLPRPRPRPRAIPRP, the “shrunken log2 fold change” value was 0.0982.

For RRIRGRPPRLPRPRPRPMKQPRP, the “shrunken log2 fold change” value worked out at 0.316.

Take RRIRQRPPRLPRPRPRPKQWPRP: the “shrunken log2 fold change” value came to 0.293.

As to RRIRDRPPRLPRPRPRPMPEPRP, the “shrunken log2 fold change” value came to 0.0845.

With RRIRNRPPRLPRPRPRPVRKPRP, the “shrunken log2 fold change” value stood at 0.128.

RRIRARPPRLPRPRPRPQGYPRP: the “shrunken log2 fold change” value was 0.119.

Take RRIRWRPPRLPRPRPRPYTMPRP: the “shrunken log2 fold change” value was -0.335.

With RRIRMRPPRLPRPRPRPMWNPRP, the “shrunken log2 fold change” value amounted to 0.0246.

In the case of RRIRTRPPRLPRPRPRPDPLPRP, the “shrunken log2 fold change” value is -0.145.

For the sequence RRIRERPPRLPRPRPRPCWHPRP, the “shrunken log2 fold change” value was -0.523.

RRIRGRPPRLPRPRPRPMFVPRP: the “shrunken log2 fold change” value was found to be 0.39.

As to RRIRVRPPRLPRPRPRPRPKPRP, the “shrunken log2 fold change” value was 0.521.

Consider RRIRSRPPRLPRPRPRPLQDPRP, for which the “shrunken log2 fold change” value was -0.129.

Consider RRIRRRPPRLPRPRPRPRRDPRP, for which the “shrunken log2 fold change” value worked out at 0.19.

Turning to RRIRHRPPRLPRPRPRPQNCPRP, the “shrunken log2 fold change” value came out at 0.0145.

As to RRIRERPPRLPRPRPRPMEQPRP, the “shrunken log2 fold change” value was -0.136.

With RRIRGRPPRLPRPRPRPSHAPRP, the “shrunken log2 fold change” value was determined as 0.423.

For the sequence RRIRGRPPRLPRPRPRPCEGPRP, the “shrunken log2 fold change” value was found to be 0.364.

Regarding RRIRMRPPRLPRPRPRPLYKPRP, the “shrunken log2 fold change” value is -0.134.

Consider RRIRERPPRLPRPRPRPPQHPRP, for which the “shrunken log2 fold change” value stood at 0.128.

For the sequence RRIRHRPPRLPRPRPRPKYRPRP, the “shrunken log2 fold change” value is -0.138.

Take RRIRPRPPRLPRPRPRPCEKPRP: the “shrunken log2 fold change” value was determined as 0.0377.

In the case of RRIRKRPPRLPRPRPRPPSVPRP, the “shrunken log2 fold change” value came to 0.282.

With RRIRQRPPRLPRPRPRPWTYPRP, the “shrunken log2 fold change” value was 0.0804.

RRIRNRPPRLPRPRPRPMSHPRP: the “shrunken log2 fold change” value was -0.249.

Turning to RRIRRRPPRLPRPRPRPWWFPRP, the “shrunken log2 fold change” value was -0.378.

For the sequence RRIRSRPPRLPRPRPRPIKFPRP, the “shrunken log2 fold change” value is -0.0229.

Take RRIRGRPPRLPRPRPRPTINPRP: the “shrunken log2 fold change” value came to 0.477.

Take RRIRPRPPRLPRPRPRPAQVPRP: the “shrunken log2 fold change” value was -0.0714.

In the case of RRIRSRPPRLPRPRPRPEMCPRP, the “shrunken log2 fold change” value was -0.104.

With RRIRSRPPRLPRPRPRPLLEPRP, the “shrunken log2 fold change” value amounted to 0.243.

Take RRIRFRPPRLPRPRPRPSGFPRP: the “shrunken log2 fold change” value was -0.207.

On to RRIRPRPPRLPRPRPRPCSTPRP, for which the “shrunken log2 fold change” value is -0.173.

Take RRIRCRPPRLPRPRPRPDKGPRP: the “shrunken log2 fold change” value worked out at 0.0974.

For the sequence RRIRFRPPRLPRPRPRPCQPPRP, the “shrunken log2 fold change” value is -0.134.

As to RRIRLRPPRLPRPRPRPHQPPRP, the “shrunken log2 fold change” value was 0.18.

Turning to RRIRKRPPRLPRPRPRPWMSPRP, the “shrunken log2 fold change” value is -0.0718.

For RRIRVRPPRLPRPRPRPRSHPRP, the “shrunken log2 fold change” value was 0.0021.

Turning to RRIRARPPRLPRPRPRPMEDPRP, the “shrunken log2 fold change” value was -0.0391.

For RRIRNRPPRLPRPRPRPRTCPRP, the “shrunken log2 fold change” value is -0.257.

For RRIRIRPPRLPRPRPRPNTLPRP, the “shrunken log2 fold change” value was -0.818.

With RRIRGRPPRLPRPRPRPNVLPRP, the “shrunken log2 fold change” value is -0.0548.

RRIRERPPRLPRPRPRPNEQPRP: the “shrunken log2 fold change” value was -0.215.

Consider RRIRKRPPRLPRPRPRPCALPRP, for which the “shrunken log2 fold change” value turned out to be 0.0167.

Regarding RRIRLRPPRLPRPRPRPMVYPRP, the “shrunken log2 fold change” value is -0.0262.

With RRIRVRPPRLPRPRPRPQYYPRP, the “shrunken log2 fold change” value was -0.238.

On to RRIRARPPRLPRPRPRPLMHPRP, for which the “shrunken log2 fold change” value amounted to 0.446.

In the case of RRIRWRPPRLPRPRPRPPGSPRP, the “shrunken log2 fold change” value was 0.333.

Take RRIRYRPPRLPRPRPRPKIHPRP: the “shrunken log2 fold change” value is -1.18.

As to RRIRIRPPRLPRPRPRPAFPPRP, the “shrunken log2 fold change” value was -0.0288.

Turning to RRIRTRPPRLPRPRPRPQVGPRP, the “shrunken log2 fold change” value is -0.137.

Turning to RRIRDRPPRLPRPRPRPEEYPRP, the “shrunken log2 fold change” value was 0.0208.

Regarding RRIRFRPPRLPRPRPRPKHAPRP, the “shrunken log2 fold change” value worked out at 0.416.

As to RRIRYRPPRLPRPRPRPSPSPRP, the “shrunken log2 fold change” value is -0.269.

For RRIRRRPPRLPRPRPRPTAMPRP, the “shrunken log2 fold change” value was 0.78.

With RRIRVRPPRLPRPRPRPDQLPRP, the “shrunken log2 fold change” value was determined as 0.112.

For RRIRMRPPRLPRPRPRPIWYPRP, the “shrunken log2 fold change” value was -0.158.

For RRIRPRPPRLPRPRPRPWNPPRP, the “shrunken log2 fold change” value is -0.496.

For the sequence RRIRQRPPRLPRPRPRPCERPRP, the “shrunken log2 fold change” value was -0.0133.

Regarding RRIRTRPPRLPRPRPRPHKAPRP, the “shrunken log2 fold change” value was -0.0306.

Consider RRIRGRPPRLPRPRPRPKNHPRP, for which the “shrunken log2 fold change” value is 0.179.

With RRIRYRPPRLPRPRPRPGINPRP, the “shrunken log2 fold change” value was -0.227.

Consider RRIRGRPPRLPRPRPRPKRQPRP, for which the “shrunken log2 fold change” value amounted to 0.377.

As to RRIRQRPPRLPRPRPRPQSDPRP, the “shrunken log2 fold change” value was -0.00542.

On to RRIRERPPRLPRPRPRPSFKPRP, for which the “shrunken log2 fold change” value was -0.401.

As to RRIRWRPPRLPRPRPRPYMIPRP, the “shrunken log2 fold change” value was -1.02.

Regarding RRIRCRPPRLPRPRPRPGGRPRP, the “shrunken log2 fold change” value amounted to 0.404.

Regarding RRIRGRPPRLPRPRPRPTIVPRP, the “shrunken log2 fold change” value worked out at 0.779.

On to RRIRNRPPRLPRPRPRPEQWPRP, for which the “shrunken log2 fold change” value is -0.0114.

For the sequence RRIRMRPPRLPRPRPRPDPKPRP, the “shrunken log2 fold change” value is -0.000946.

As to RRIRDRPPRLPRPRPRPCIKPRP, the “shrunken log2 fold change” value was determined as 0.0183.

Regarding RRIRCRPPRLPRPRPRPTGPPRP, the “shrunken log2 fold change” value was found to be 0.669.

In the case of RRIRKRPPRLPRPRPRPNEAPRP, the “shrunken log2 fold change” value is -0.00686.

Consider RRIRCRPPRLPRPRPRPQKKPRP, for which the “shrunken log2 fold change” value was -0.0243.

As to RRIRERPPRLPRPRPRPCLDPRP, the “shrunken log2 fold change” value was -0.0689.

With RRIRNRPPRLPRPRPRPVPHPRP, the “shrunken log2 fold change” value is -0.0692.

Take RRIRCRPPRLPRPRPRPGRIPRP: the “shrunken log2 fold change” value is -0.231.

As to RRIRCRPPRLPRPRPRPSFHPRP, the “shrunken log2 fold change” value was -0.841.

On to RRIRYRPPRLPRPRPRPFVPPRP, for which the “shrunken log2 fold change” value was -0.285.

On to RRIRWRPPRLPRPRPRPWTGPRP, for which the “shrunken log2 fold change” value is -0.0518.

For RRIRDRPPRLPRPRPRPTDWPRP, the “shrunken log2 fold change” value came out at 0.516.

Turning to RRIRRRPPRLPRPRPRPPYLPRP, the “shrunken log2 fold change” value worked out at 0.0685.

Regarding RRIRARPPRLPRPRPRPSWNPRP, the “shrunken log2 fold change” value is -0.19.

RRIRVRPPRLPRPRPRPFMTPRP: the “shrunken log2 fold change” value is 0.127.

On to RRIRGRPPRLPRPRPRPKVRPRP, for which the “shrunken log2 fold change” value worked out at 0.105.

On to RRIRFRPPRLPRPRPRPSPDPRP, for which the “shrunken log2 fold change” value was -0.0261.

As to RRIRHRPPRLPRPRPRPQIVPRP, the “shrunken log2 fold change” value is -0.238.

Turning to RRIRTRPPRLPRPRPRPCPWPRP, the “shrunken log2 fold change” value is -0.21.

In the case of RRIRERPPRLPRPRPRPPSLPRP, the “shrunken log2 fold change” value is -0.0799.

For the sequence RRIRRRPPRLPRPRPRPKFEPRP, the “shrunken log2 fold change” value was determined as 0.0131.

Regarding RRIRERPPRLPRPRPRPAHRPRP, the “shrunken log2 fold change” value worked out at 0.0394.

Consider RRIRTRPPRLPRPRPRPPINPRP, for which the “shrunken log2 fold change” value was -0.338.

Regarding RRIRERPPRLPRPRPRPLLKPRP, the “shrunken log2 fold change” value was -0.439.

Take RRIRYRPPRLPRPRPRPAMSPRP: the “shrunken log2 fold change” value is -0.0191.

Take RRIRTRPPRLPRPRPRPENNPRP: the “shrunken log2 fold change” value is -0.267.

Consider RRIRGRPPRLPRPRPRPYDYPRP, for which the “shrunken log2 fold change” value is -0.15.

With RRIRRRPPRLPRPRPRPCCIPRP, the “shrunken log2 fold change” value is -0.179.

As for RRIRFRPPRLPRPRPRPWWHPRP, the “shrunken log2 fold change” value is -0.334.

Regarding RRIRWRPPRLPRPRPRPDAVPRP, the “shrunken log2 fold change” value came to 0.4.

With RRIRMRPPRLPRPRPRPVCPPRP, the “shrunken log2 fold change” value is 0.0129.

For the sequence RRIRTRPPRLPRPRPRPMAMPRP, the “shrunken log2 fold change” value worked out at 0.0345.

With RRIRTRPPRLPRPRPRPKAPPRP, the “shrunken log2 fold change” value came out at 0.317.
